Measurements reported in article PMC6647844.

Target: tetra-methyl rhodamine-labeled Aβ42 (TMR-Aβ) (UniProt P05067)
Experiment: other fluorescence titration

Chain of tetra-methyl rhodamine-labeled Aβ42 (TMR-Aβ) (P05067 672-713): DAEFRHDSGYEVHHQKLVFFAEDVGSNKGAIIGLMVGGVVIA

Kd: 2550 nM
Substance: granulin-3, fully reduced (rGRN-3) (from UniProt P28799 206-261) (natural protein)
